Test results from publication PMC11281638.

Biological target: Sso7d-IN (full-length HIV-1 integrase fused to Sso7d) (not stated | HIV-1)
Assay: semi-quantitative SDS-PAGE (Coomassie) of the purified complex

“LEDGF-IBD (lens epithelium-derived growth factor IN-binding domain, residues 307-460), His-tagged (from UniProt O75475 307-460) (domain or fragment)” gave a stoichiometry N (IBD per full-length IN) of 1.
Substance “IN-CTD (HIV-1 integrase residues 185-288), His-tagged (from UniProt P12497 186-289) (domain or fragment)” has a stoichiometry N (CTD per full-length IN) of 0.3.
